From a protein production outcome set (Wang et al. 2014)

Assay: label from the status in PepcDB records

For “MIRLILILINILFCHYLYALDCQKRLFDISINEKLSIQESLDELAKYCSFSIIVKDKIAKEKLETLQNSVNIHQMSLDEIFNFFIKEHDLSYDFDGKILRISGINTKIFKISYITSIREGQSITKASVDAKPRQSEYSGSFDDAEDNMIKSMEKFDFWQNIEKEIIVLLKNSHEDYEAKTPIINPNAGLIIVTGTNSQLKSVKNYLQKLENRLKKQVIIDVSILAVSLNESHSSGINWQNFNIGLNSQVNNENSFIQFQNGQGFVKNLGLRANLNFDSIINFLSQNGKTSVLSNPKLMALNNQQAIISVGDTINYQVKESSKGTENGTTVSESYNNYSIFVGILLNILPEISDDGKIMLRINPSLSDFKYPEDNKRQKEPRTIAPDTIQKKLSSVVQVENNQTLILGGLISHDKSNEKNSINFLSKIPILGSLFKGEVLNSKATEIVFIITPSIVDSVNAPSLKDLGFKHYELEHHHHHH”, the protein production was “failed”.
In the case of “MRYFSTDSPEVKTIVAQDSRLFQFIEIAGEVQLPTKPNPFQSLVSSIVEQQLSIKAASAIYGRVEQLVGGALEKPEQLYRVSDEALRQAGVSKRKIEYIRHVCEHVESGRLDFTELEGAEATTVIEKLTAIKGIGQWTAEMFMMFSLGRLDVLSVGDVGLQRGAKWLYGNGEGDGKKLLIYHGKAWAPYETVACLYLWKAAGTFAEEYRSLEELLHHGNQC”, the protein production is reported as “not failed”.
In the case of “MATKNSAPLASFIDLLLDAVCAVDVEGRFVFVSAACERVFGYTADELIGRPMIELVHPADRERTLQAAREIMGGVPKPNFENRYVRKDGRVAHILWSARWSEVDQLRIAVARDITERKQAESRQAALYAISEAAHATEDLLVLFRHVHRIIGEWLPALNCSLALYDERSASLSFPYHVDDCEGSPELPGTLIERFCVEVLQCGQPLLLAPECPVNRVLWSEFAAIQGSRCWLGVPLNSQKGTIGVLMVKSAPGTESYSEQDQELLQYVSAQLAAAIERKQLHARLHYMAEYDQLTHLPNRELLRERLRSALARARRESGRMALLYVDLDKFKEVNDTCGHAVGDMLLQAVANRLKGCVRETDTVARIGGDEFVILLESVQHSEDAQRVAEKIRRTLGEPLRLDGHSLNILPSIGIGLYPEHGLEEKQLFKHADEAMYAVKRAQKSRSNA”, the protein production is reported as “failed”.
With “MKVFFNKIPLALSSLVLALFSLSNQISQYTLFSQGIWLIAVFGFFLVLGRPIIGYRQTQEDLHNPVIASAFPSFFMAAFLFAGRLPLAQADLSIAWIVVLIGLYIAYIIFFSLRFLRPLVLEQVYPSWFVVYVGPAINLVTIPDSIPNSTKALILGLTGLATLALFPLIFWRMRRLAIPQPVLPILAILAAPLALLITSSIKSGQKPDTILLVGLLIFSQLFFFFALGLFTRLVNKGFVPLFAAFSFPLVNSINAFKAATTSLGLVNPATQLVYKVEFVFVLVIMTYLLYHFLKLLYKALIQALNTKKQAGSV” the protein production was “failed”.
With “MTPEAAYQNLLEFQRETAYLASLGALAAWDQRTMIPKKGHEHRARQMAALARLLHQRMTDPRIGEWLEKVEGSPLVQDPLSDAAVNVREWRQAYERARAIPERLAVELAQAESEAESFWEEARPRDDWRGFLPYLKRVYALTKEKAEVLFALPPAPGDPPYGELYDALLDGYEPGMRARELLPLFAELKEGLKGLLDRILGSGKRPDTSILHRPYPVEAQRRFALELLSACGYDLEAGRLDPTAHPFEIAIGPGDVRITTRYYEDFFNAGIFGTLHEMGHALYEQGLPKEHWGTPRGDAVSLGVHESQSRTWENLVGRSLGFWERFFPRAREVFASLGDVSLEDFHFAVNAVEPSLIRVEADEVTYNLHILVRLELELALFRGELSPEDLPEAWAEKYRDHLGVAPKDYKDGVMQDVHWAGGLFGYFPTYTLGNLYAAQFFQKAEAELGPLEPRFARGEFQPFLDWTRARIHAEGSRFRPRVLVERVTGEAPSARPFLAYLEKKYAALYG” the protein production was “not failed”.
In the case of “MDGVLKGFFVVSIVLLIGYILGKTKALGPEGSKVLSTLTFMVGLPCLMFSAIASRHINDVLSATGLISVVTAVAVMLVFTVAGTIARWGVRRTTIGALSVGIVNSTNLGVPLSLYILGSATYVTPIMLFQLAIVTPIALTILDLTDPAGKKVSVWRTLSIPFRNPVTVAAILGVLVSALGIQLPSLVLDPLALVAQLAVPLMLIIFGMSLHGLSVRPGIDDRVPTTIAVILKSAIQPVLAWVLAAFVFQLDPFSTFVVTACAILPTGQNVVLYSVRYGVGQGIAQSTAVFTSILAVPLLLGAAWLFG”, the protein production is reported as “failed”.
